PMC9335266 (Proceedings of the National Academy of Sciences of the …, 2022)

Target: TRIM7^B30.2 (PRY-SPRY domain of human TRIM7, residues 338-511) (human, UniProt Q9C029 338-511)
Experiment: ITC

KRKLDTYLQ [GN1 peptide (KRKLDTYLQ), Ct-nonapeptide of glycogenin-1]
Kd: 2700 nM
